Results published in paper doi:10.1101/411223 (bioRxiv, 2018).

Experiments:
Kap121p = target: T1, Kap121p (S. cerevisiae, UniProt P32337 1-1089); assay: ITC
T1 sequence (looked up): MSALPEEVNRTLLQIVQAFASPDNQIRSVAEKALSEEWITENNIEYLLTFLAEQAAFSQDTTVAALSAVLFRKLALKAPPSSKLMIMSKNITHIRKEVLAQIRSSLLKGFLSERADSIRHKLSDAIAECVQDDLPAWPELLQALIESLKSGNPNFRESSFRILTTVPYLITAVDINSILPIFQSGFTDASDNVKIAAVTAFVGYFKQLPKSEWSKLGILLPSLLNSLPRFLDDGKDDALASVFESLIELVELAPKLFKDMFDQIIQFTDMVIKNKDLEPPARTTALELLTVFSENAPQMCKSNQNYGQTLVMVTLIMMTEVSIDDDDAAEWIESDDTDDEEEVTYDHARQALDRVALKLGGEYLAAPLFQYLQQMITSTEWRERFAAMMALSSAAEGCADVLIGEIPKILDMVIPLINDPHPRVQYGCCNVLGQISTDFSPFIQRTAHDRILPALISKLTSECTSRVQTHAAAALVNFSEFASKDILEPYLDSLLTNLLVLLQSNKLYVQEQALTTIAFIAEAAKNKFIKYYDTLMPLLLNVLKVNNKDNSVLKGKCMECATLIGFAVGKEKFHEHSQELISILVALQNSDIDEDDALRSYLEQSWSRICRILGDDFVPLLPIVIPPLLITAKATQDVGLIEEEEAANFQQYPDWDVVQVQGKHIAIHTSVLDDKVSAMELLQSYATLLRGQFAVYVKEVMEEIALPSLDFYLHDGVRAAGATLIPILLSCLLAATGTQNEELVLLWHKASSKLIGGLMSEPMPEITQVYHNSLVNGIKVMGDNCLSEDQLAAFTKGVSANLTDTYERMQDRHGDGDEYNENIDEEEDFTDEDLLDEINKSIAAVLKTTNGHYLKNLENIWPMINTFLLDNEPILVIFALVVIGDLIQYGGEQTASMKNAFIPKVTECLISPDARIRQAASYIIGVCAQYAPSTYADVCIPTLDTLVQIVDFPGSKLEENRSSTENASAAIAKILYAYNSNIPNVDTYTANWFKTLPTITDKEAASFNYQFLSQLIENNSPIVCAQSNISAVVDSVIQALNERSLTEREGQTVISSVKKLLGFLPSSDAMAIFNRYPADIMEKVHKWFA

AUC = target: the molecule itself; assay: AUC
Kap114p = target: T2, Kap114p (S. cerevisiae, UniProt P53067 1-1004); assay: AUC
T2 sequence (looked up): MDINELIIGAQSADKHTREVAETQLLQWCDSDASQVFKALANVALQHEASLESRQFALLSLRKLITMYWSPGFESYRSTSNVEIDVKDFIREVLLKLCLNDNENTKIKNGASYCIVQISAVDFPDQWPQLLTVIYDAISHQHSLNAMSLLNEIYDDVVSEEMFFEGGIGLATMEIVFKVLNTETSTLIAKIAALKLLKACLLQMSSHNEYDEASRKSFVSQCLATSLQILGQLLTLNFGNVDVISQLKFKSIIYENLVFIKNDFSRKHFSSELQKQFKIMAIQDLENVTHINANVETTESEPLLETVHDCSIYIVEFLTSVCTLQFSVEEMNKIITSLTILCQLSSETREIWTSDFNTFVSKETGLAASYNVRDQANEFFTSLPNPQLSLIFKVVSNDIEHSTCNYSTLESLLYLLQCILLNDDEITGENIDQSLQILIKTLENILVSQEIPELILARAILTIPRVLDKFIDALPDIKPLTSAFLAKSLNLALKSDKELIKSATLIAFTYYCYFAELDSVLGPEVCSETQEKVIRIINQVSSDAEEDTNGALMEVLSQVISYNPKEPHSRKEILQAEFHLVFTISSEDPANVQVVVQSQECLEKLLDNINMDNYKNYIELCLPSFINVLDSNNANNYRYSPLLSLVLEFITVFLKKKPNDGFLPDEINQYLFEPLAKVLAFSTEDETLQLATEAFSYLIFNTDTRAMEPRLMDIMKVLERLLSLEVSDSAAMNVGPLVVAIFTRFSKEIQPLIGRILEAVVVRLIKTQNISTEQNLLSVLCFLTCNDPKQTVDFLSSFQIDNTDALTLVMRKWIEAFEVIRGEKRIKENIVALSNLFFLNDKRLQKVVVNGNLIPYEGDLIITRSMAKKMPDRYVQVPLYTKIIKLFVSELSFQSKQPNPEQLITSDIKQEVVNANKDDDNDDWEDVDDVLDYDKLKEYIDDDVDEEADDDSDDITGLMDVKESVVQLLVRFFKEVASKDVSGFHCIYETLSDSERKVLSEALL

Kd (Kap121p): ~15 µM
stoichiometry N (Kap114p): 1
B1: yTBP (61-240) (domain or fragment, S. cerevisiae, UniProt P13393 61-240, looked up)
chain: SGIVPTLQNIVATVTLGCRLDLKTVALHARNAEYNPKRFAAVIMRIREPKTTALIFASGKMVVTGAKSEDDSKLASRKYARIIQKIGFAAKFTDFKIQNIVGSCDVKFPIRLEGLAFSHGTFSSYEPELFPGLIYRMVKPKIVLLIFVSGKIVLTGAKQREEIYQAFEAIYPVLSEFRKM
stoichiometry N (AUC): 2
